Laboratory results from patent publication US20230220104A1 (BRIGHTPATH BIOTHERAPEUTICS, published 2023).
Read-outs that look alike come from different tables or passages of the source.

T1: human CD73 on cells (H322, MDA-MB-231, HT-144, T cells, CD73-transfected HEK293T) (human, UniProt P21589 27-549)
T1 sequence (looked up): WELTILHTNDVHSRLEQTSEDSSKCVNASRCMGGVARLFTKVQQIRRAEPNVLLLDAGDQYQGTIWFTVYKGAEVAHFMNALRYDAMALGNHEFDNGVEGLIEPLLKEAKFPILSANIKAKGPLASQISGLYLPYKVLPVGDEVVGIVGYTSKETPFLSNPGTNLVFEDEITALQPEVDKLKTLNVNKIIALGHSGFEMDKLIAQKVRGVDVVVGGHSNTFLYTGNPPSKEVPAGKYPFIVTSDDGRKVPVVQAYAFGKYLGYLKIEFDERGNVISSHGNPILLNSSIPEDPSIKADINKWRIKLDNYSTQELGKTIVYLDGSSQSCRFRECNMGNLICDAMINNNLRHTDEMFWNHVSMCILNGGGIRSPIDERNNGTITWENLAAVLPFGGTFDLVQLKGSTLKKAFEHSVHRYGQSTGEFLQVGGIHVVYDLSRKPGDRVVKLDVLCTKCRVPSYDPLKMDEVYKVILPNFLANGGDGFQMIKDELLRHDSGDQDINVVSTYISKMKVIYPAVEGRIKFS


Tests used:
[1] = molecular target: T1, human CD73 on cells (H322, MDA-MB-231, …); test: cell-based or functional assay
[2] = molecular target: T1, human CD73 on cells (H322, MDA-MB-231, …); test: cell-based or functional assay; remark: listed apart in the source
[3] = molecular target: T1, human CD73 on cells (H322, MDA-MB-231, …); test: cell-based or functional assay; remark: listed apart in the source
[4] = molecular target: T1, human CD73 on cells (H322, MDA-MB-231, …); test: cell-based or functional assay; remark: listed apart in the source
[5] = molecular target: T1, human CD73 on cells (H322, MDA-MB-231, …); test: cell-based or functional assay; remark: listed apart in the source
[6] = molecular target: T1, human CD73 on cells (H322, MDA-MB-231, …); test: flow cytometry on H322 cells (endogenous CD73), PE channel
Description: Analysis of the binding activity of each of the obtained humanized antibodies 002_6_h1 to 002_6_h8 to target expressing cells was carried out by FACS analysis using endogeneously CD73 expressing cells (human lung cancer cell line H322).

Binder | IC50 of AMP degradation suppressive function, H322 cells [1] | IC50 of AMP degradation suppressive function, MDA-MB-231 cells [2] | IC50 of AMP degradation suppressive function (cell line of Table 7 not stated; H322 in FIG. 12) [3] | further results
002_1_c antibody (antibody, V domains shown) VH: QVQMKQSGPELVKPGASVKIPCKASGYTFTDCNMDWVKQSHGESLEWIGDINPNNGGTIYNQKFKGKVTLTIDKSSSTAYMELRSLTSEDTAVYYCARTNWDYAMDYWGQGTSVTVSS VL: DIQMTQSPSSMYASLGERVTITCKASQDINSNLSWFQQKPGKSPKTLIYRANRLIDGVPSRFSGSGSGQDYSLTISSLEYEDMGIYYCLQYDVFPRTFGGGTKLELK | 0.042 µg/mL | – | – | –
006_m antibody (antibody, V domains shown) VH: QVQLQQPGAELVKPGVSVKLSCKASGYTFTSYWMHWVKQRPGQGPEWIGEINPSNARTNYNENFKSKATLTVDKSSTTAYMHFSRLTSEDSAVYYCARRGTSGNYFDFWGQGTTVTVSS VL: DIQMTQSPSSMYASLGERVTITCKASQDINTYLSWFQQKPGKSPKTLIYRANRLVDGVPSRFSGSGSGEDYSLTISSLEYEDMGIYYCLQYDEFPYTFGGGTRLEIK | – | 0.032 µg/mL | 0.008 µg/mL | –
002_5_c antibody (antibody, V domains shown) VH: QVQMKQSGPELVKPGASVKIPCKASGYTFTDSNMDWVKQSHGESLEWIGDINPNNGGTIYNQKFKGKVTLTIDKSSSTAYMELRSLTSEDTAVYYCARTNWDYAMDYWGQGTSVTVSS VL: DIQMTQSPSSMYASLGERVTITCKASQDINSDLSWFQQKPGKSPKTLIYRANRLIDGVPSRFSGSGSGQDYSLTISSLEYEDMGIYYCLQYDVFPRTFGGGTKLELK | 0.066 µg/mL | – | – | –
002_4_c antibody (antibody, V domains shown) VH: QVQMKQSGPELVKPGASVKIPCKASGYTFTDSNMDWVKQSHGESLEWIGDINPNNGGTIYNQKFKGKVTLTIDKSSSTAYMELRSLTSEDTAVYYCARTNWDYAMDYWGQGTSVTVSS VL: DIQMTQSPSSMYASLGERVTITCKASQDINSNLSWFQQKPGKSPKTLIYRANRLIDGVPSRFSGSGSGQDYSLTISSLEYEDMGIYYCLQYDVFPRTFGGGTKLELK | 0.038 µg/mL | – | – | –
002_3_c antibody (antibody, V domains shown) VH: QVQMKQSGPELVKPGASVKIPCKASGYTFTDCNMDWVKQSHGESLEWIGDINPNNGGTIYNQKFKGKVTLTIDKSSSTAYMELRSLTSEDTAVYYCARTNWDYAMDYWGQGTSVTVSS VL: DIQMTQSPSSMYASLGERVTITCKASQDINSQLSWFQQKPGKSPKTLIYRANRLIDGVPSRFSGSGSGQDYSLTISSLEYEDMGIYYCLQYDVFPRTFGGGTKLELK | 0.039 µg/mL | – | – | –
002_2_c antibody (antibody, V domains shown) VH: QVQMKQSGPELVKPGASVKIPCKASGYTFTDCNMDWVKQSHGESLEWIGDINPNNGGTIYNQKFKGKVTLTIDKSSSTAYMELRSLTSEDTAVYYCARTNWDYAMDYWGQGTSVTVSS VL: DIQMTQSPSSMYASLGERVTITCKASQDINSDLSWFQQKPGKSPKTLIYRANRLIDGVPSRFSGSGSGQDYSLTISSLEYEDMGIYYCLQYDVFPRTFGGGTKLELK | 0.077 µg/mL | – | – | –
002_6_h1 (antibody, V domains shown, Humanized antibody of 002_6_c; also called humanized antibody 002_6_h1) VH: QVQLVQSGAEVKKPGASVKVSCKASGYTFTDSNMDWVRQAPGQRLEWMGDINPNNGGTIYNQKFKGRVTITRDTSASTAYMELSSLRSEDTAVYYCARTNWDYAMDYWGQGTLVTVSS VL: DIQMTQSPSSLSASVGDRVTITCKASQDINSQLSWYQQKPGKAPKLLIYRANRLIDGVPSRFSGSGSGTDFTLTISSLQPEDFATYYCQQYDVFPRTFGQGTKLEIK | – | – | – | binding result [6]: binds
002_6_h3 (antibody, V domains shown, Humanized antibody of 002_6_c; also called humanized antibody 002_6_h3) VH: QVQLLQSAAEVRKPGASVKVSCKASGYTFTDSNMDWVRQAPGQGLEWMGDINPNNGGTIYNQKFKGRVTMTTDTSRRTAYMELRSLRSDDTAVYYCARTNWDYAMDYWGQGTTVTVSS VL: DIQMTQSPSFLSASVGDRVTITCKASQDINSQLSWYQQKPGKAPKLLIYRANRLIDGVPSRFSGSGSGTEFTLTISSLQPEDFATYYCQQYDVFPRTFGGGTKLEIK | – | – | – | binding result [6]: binds
002_6_h6 (antibody, V domains shown, Humanized antibody of 002_6_c; also called humanized antibody 002_6_h6) VH: QVQMKESGAEVKKPGASVKVSCKASGYTFTDSNMDWVRQAPGQGLEWMGDINPNNGGTIYNQKFKGRVTMTIDTSTSTVYMELSSLRSEDTAVYYCARTNWDYAMDYWGQGTLVTVSS VL: DIQVTQSPSFLSASVGDRVTITCKASQDINSQLSWYQQKPGKAPKTLIYRANRLIDGVPSRFSGSGSGTDFTLTISSLQYEDMATYYCLQYDVFPRTFGGGTKVEIK | – | – | – | binding result [6]: binds
002_6_h5 (antibody, V domains shown, Humanized antibody of 002_6_c; also called humanized antibody 002_6_h5) VH: QVQLQESGAEVKKPGASVKVSCKASGYTFTDSNMDWVRQAPGQGLEWMGDINPNNGGTIYNQKFKGRVTMTRDTSTSTVYMELSSLRSEDTAVYYCARTNWDYAMDYWGQGTLVTVSS VL: DIQVTQSPSFLSASVGDRVTITCKASQDINSQLSWYQQKPGKAPKLLIYRANRLIDGVPSRFSGSGSGTEFTLTISSLQPEDFATYYCQQYDVFPRTFGGGTKVEIK | – | – | – | binding result [6]: binds
002_6_h2 (antibody, V domains shown) VH: QVQMKQSGAEVKKPGASVKVSCKASGYTFTDSNMDWVRQAPGQRLEWMGDINPNNGGTIYNQKFKGRVTITIDTSASTAYMELSSLRSEDTAVYYCARTNWDYAMDYWGQGTLVTVSS VL: DIQMTQSPSSMSASVGDRVTITCKASQDINSQLSWYQQKPGKAPKTLIYRANRLIDGVPSRFSGSGSGTDFTLTISSLQYEDMATYYCLQYDVFPRTFGQGTKLEIK | – | – | – | IC50 of AMP degradation suppressive function, H322 cells [4]: 0.236 µg/mL

More lines, main results first:

IC50 of AMP degradation suppressive function, H322 cells [1] | IC50 of AMP degradation suppressive function, MDA-MB-231 cells [2] | IC50 of AMP degradation suppressive function (cell line of Table 7 not stated; H322 in FIG. 12) [3] | Binder | further results
– | 0.041 µg/mL | 0.012 µg/mL | 007_m antibody (antibody, V domains shown) VH: QVQLQQPGAELVRPGASVKLSCKASGYTFTSYWMNWVKQRPEQGLEWIGKIDPYDSETHYNQKFKDKAILTVDKSSSTAFMQLSSLTSEDSAVYYCARIRYGTFDYWGQGTTLTVSS VL: DIVMTQSPSSMYASLGERVTITCKASQDINNYLSWFQQKPGKSPKTLIYRANILVDGVPSGFSGSGSGQDYSLTISSLEYEDMGIYYCLQYDEFPYTFGGGTRLEIK | –
0.042 µg/mL | 0.04 µg/mL | – | 002_6_c antibody (antibody, V domains shown) VH: QVQMKQSGPELVKPGASVKIPCKASGYTFTDSNMDWVKQSHGESLEWIGDINPNNGGTIYNQKFKGKVTLTIDKSSSTAYMELRSLTSEDTAVYYCARTNWDYAMDYWGQGTSVTVSS VL: DIQMTQSPSSMYASLGERVTITCKASQDINSQLSWFQQKPGKSPKTLIYRANRLIDGVPSRFSGSGSGQDYSLTISSLEYEDMGIYYCLQYDVFPRTFGGGTKLELK | IC50 of AMP degradation suppressive function, H322 cells [4]: 0.04 µg/mL; IC50 of AMP degradation suppressive function, MDA-MB-231 cells [5]: 0.023 µg/mL
– | 0.031 µg/mL | 0.006 µg/mL | 008_m antibody (antibody, V domains shown) VH: QVQLKQSGAELVKPGASVKLSCKASGYTFTSYWMHWVKQRPGQGPEWIGEINPSNGRTNYNEKFKNRATLTVDKSSSTAYMQLSRLTSEDSAVYYCARRGTSGNYFDYWGQGTTLTVSS VL: DIQMTQSPSSMYASLGERVTITCKASQDINTYLSWFQQKPGKSPKTLIYRANRLVDGVPSRFSGSGSGEDYSLTISSLEYEDMGIYYCLQYDEFPYTFGGGTRLEIK | –
– | 0.032 µg/mL | 0.013 µg/mL | 004_m antibody (antibody, V domains shown) VH: QVQLQQPGAELVRPGTSVKLSCKASGYTFTGYWMNWLKQRPDQGLEWIGRIDPYDSETHYSQKFKDKAILTVHKSSSTAYIQLNSLTSEDSAVYYCTRSSPITTAPFDYWGRGTTLTVSS VL: not shown | –
– | – | 0.088 µg/mL | 003_m antibody (antibody, V domains shown) VH: DVKLVESGGGLVQPGGSRKLSCAASGFTFSSFGMHWVRQAPEKGLEWVAYISSGSRTIYYADTVRGRFTISRDNSKNTLFLQLTSLRSEDTAIYYCASDFGSSSPNYFDYWGQGTTVTVSS VL: not shown | –
